Source: patent US20190092832A1 (published 2019)

Target: T1, interferon-alpha/beta receptor alpha chain (IFNAR1) (UniProt P17181 28-436, limits assumed)
T1 sequence (looked up): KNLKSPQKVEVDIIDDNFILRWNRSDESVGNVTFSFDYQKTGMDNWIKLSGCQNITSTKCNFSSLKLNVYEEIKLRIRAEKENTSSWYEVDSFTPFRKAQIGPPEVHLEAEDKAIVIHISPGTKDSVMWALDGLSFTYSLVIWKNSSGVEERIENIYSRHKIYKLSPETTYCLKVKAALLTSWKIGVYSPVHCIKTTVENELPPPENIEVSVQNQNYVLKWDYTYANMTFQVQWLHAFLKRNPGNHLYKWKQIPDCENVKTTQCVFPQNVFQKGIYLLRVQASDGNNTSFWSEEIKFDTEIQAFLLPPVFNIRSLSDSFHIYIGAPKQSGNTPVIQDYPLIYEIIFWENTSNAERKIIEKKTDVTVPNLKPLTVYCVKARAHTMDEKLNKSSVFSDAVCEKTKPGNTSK
Test: intrinsic fluorescence quenching of IFNAR1 titrated with peptide, double-log plot, 298 K
Protocol: […] Protein intrinsic fluorescence experiments were carried out at constant IFNAR1 concentration titrated with different concentrations of IFNβ analog peptide to reach a maximum molar ratio of the IFNβ analog peptide-IFNAR1, and the complex maximum molar ratio of the IFNβ analog peptide-IFNAR1 was 10.
In these experiments, 1.0 ml solution with a fixed concentration of the […] was precisely added into the quartz cell with a 1 cm path length and was manually titrated by successive additions of the IFNβ analog peptide at 5 min time intervals. The fluorescence emission spectra were then measured, and the maximum fluorescence intensity at a wavelength of about 340 nm was used to calculate the binding constant parameters.
Fluorescence quenching data from the interaction of the IFNβ analog peptide and IFNAR1 were analyzed to obtain various binding parameters. The binding constant (Kₐ) and the number of binding (n) were calculated according to the Eq. 1, where F₀ is the fluorescence emission intensities of IFNAR1 in the absence of the IFNβ analog peptide, F is the fluorescence emission intensities of IFNAR1 in the presence of the IFNβ analog peptide, [P] is the IFNβ analog peptide concentration, Kₐ is the binding constant, and n is the apparent molar ratio of [IFNβ analog peptide]/[IFNAR1] complex.

B1: IFNβ analog peptide with SEQ ID No. 2 (peptide)
peptide: MLQNGRDVRKRGFSDTGLRKLGRVNLL
notes: also called MSPEP27
B1 was tested, and the Ka was 3.67e+07 M⁻¹.
